Data as given in PMC10992053, “Rationally introducing non-canonical amino acids to enhance catalytic activity of LmrR for Henry reaction” (Bioresources and Bioprocessing, 2024).

Substrate: O=Cc1ccc([N+](=O)[O-])cc1
Experiment: purified protein
Conditions: nitromethane 1 M (excess), 3-18 mM aldehyde, 0.3 mg/mL enzyme, 40 °C, 5 min
Source text: Henry reaction, product by HPLC, Michaelis-Menten fit on LmrR (Lactococcal multidrug resistance Regulator)

B1: LmrR (Lactococcal multidrug resistance Regulator) (Lactococcus cremoris subsp. cremoris MG1363) (protein)
chain: MAEIPKEMLRAQTNVILLNVLKQGDNYVYGIIKQVKEASNGEMELNEATLYTIFKRLEKDGIISSYWGDESQGGRRKYYRLTEIGHENMRLAFESWSRVDKIIENLEANKKSEAIK
  Km: 9.30 mM
  Vmax: 1290 µM/min
  kcat: 0.967 s⁻¹
  kcat/Km: 104 M⁻¹ s⁻¹
